Numbering of substitutions follows the chain as printed.
B1: Fab antibody Ab14 (Fab, V domains shown)
VH: EVQLLESGGGLVQPGGSLRLSCAASGFTFSRYAMWWVRQAPGKGLEWVSYIYSSGGQTGYADSVKGRFTISRDNSKNTLYLQMNSLRAEDTAVYYCARGGVTFDLWGRGTLVTVSS
VL: DIQMTQSPATLSVSPGERATLSCRASQGVSTYLAWYQQKPGQAPRLLIYGASTRATGIPARFSGSGSGTDFTLTINSLELEDFAVYYCQQRRSWPPTFGQGTKVEIK
notes: Fab from a phage library
B2: Fab antibody Ab16 (Fab, V domains shown)
VH: EVQLLESGGGLVQPGGSLRLSCAASGFTFSQYVMFWVRQAPGKGLEWVSSIYPSGGHTLYADSVKGRFTISRDNSKNTLYLQMNSLRAEDTAVYYCAKHARGYNRGYFDSWGRGTLVTVSS
VL: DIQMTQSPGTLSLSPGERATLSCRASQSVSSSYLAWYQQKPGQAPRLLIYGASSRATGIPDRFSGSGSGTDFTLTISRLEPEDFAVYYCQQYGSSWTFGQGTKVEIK
notes: Fab from a phage library
B3: IgG version of Fab antibody Ab1 (antibody, V domains shown)
VH: EVQLLESGGGLVQPGGSLRLSCAASGFTFSNYLMSWVRQAPGKGLEWVSSIVPSGGFTHYADSVKGRFTISRDNSKNTLYLQMNSLRAEDTAVYYCARLQTGSWRVHAFDIWGQGTMVTVSS
VL: DIQMTQSPTSLSAFVGDRVTITCQASQDIGNYLNWYQQKSGEPPKLLVYDASFLKKGVPSRFSGSGSGTQYFLTIYSLQPEDFATYFCQHSDNLSVTFGGGTKVEVK
notes: Variable regions of Fab Ab1 cloned into the Dyax pR vector
B4: Antibody Ab1 conjugated with the fluorescent dye Alexa-488 (antibody, V domains shown)
VH: B3 VH
VL: B3 VL
modifications: conjugated with the fluorescent dye Alexa-488 (chain and site not stated)
notes: also called Ab1-Alexa488
B5: full-length human IgG1 antibody Ab1 (antibody, V domains shown)
VH: B3 VH
VL: DIQMTQSPTSLSAFVGDRVTITCQASQDIGNYLNWYQQKSGEPPKLLVYDASFLKKGVPSRFSGSGSGTQYFLTIYSLQPEDFATYFCQHSDNLSVTFGGGTKVEVKR
notes: also called human monoclonal Ab1
B6: full-length human IgG1 antibody Ab21 (antibody, V domains shown)
VH: B3 VH
VL: B5 VL with N93S
notes: Derived from Ab1 by changing the N in VL CDR3 to S to remove a glycosylation site; also called human monoclonal Ab21
B7: Fab antibody Ab18 (Fab, V domains shown)
VH: EVQLLESGGGLVQPGGSLRLSCAASGFTFSWYAMWWVRQAPGKGLEWVSYISSSGGATRYADSVKGRFTISRDNSKNTLYLQMNSLRAEDTAVYYCATVLQYGAFDIWGQGTMVTVSS
VL: QSALTQPPSTSGTPGQRVTISCSGSSSNIGSNYVYWYQQLPGTAPKVLIYRNNKRPSGVPDRFSGSKSGTSASLAISGLRSEDEADYYCAAWDDSLNGVIFGGGTRLTVL
notes: Fab from a phage library
B8: Fab antibody Ab4 (Fab, V domains shown)
VH: EVQLLESGGGLVQPGGSLRLSCAASGFTFSWYWMYWVRQAPGKGLEWVSGIYPSGGFTSYADSVKGRFTISRDNSKNTLYLQMNSLRAEDTAVYYCARSYYYGSGSYYNSASFDYWGQGTLVTVSS
VL: DIQMTQSPSSLSASVGDRVAITCRASQSIDTYLNWYQQKPGKAPKLLIYAASKLEDGVPSRFSGSGTGTDFTLTIRSLQPEDFASYFCQQSYSSPGITFGPGTKVEIK
notes: Fab from a phage library
B9: Fab antibody Ab19 (Fab, V domains shown)
VH: EVQLLESGGGLVQPGGSLRLSCAASGFTFSNYQMQWVRQAPGKGLEWVSSIRPSGGSTQYADSVKGRFTISRDNSKNTLYLQMNSLRAEDTAVYYCARGSSHAFDIWGQGTMVTVSS
VL: DIQMTQSPGTLSLSPGERATLSCRASQSFRSSYLAWYQQKPGQAPRLLIYDTSTRATGIPDRFSGSGSGTDFTLTISRLEPEDFAVYYCQQYGSSPPMYTFGQGTKLEIK
notes: Fab from a phage library
B10: Fab antibody Ab11 (Fab, V domains shown)
VH: EVQLLESGGGLVQPGGSLRLSCAASGFTFSNYRMMWVRQAPGKGLEWVSGIYPSGGGTFYADSVKGRFTISRDNSKNTLYLQMNSLRAEDTAVYYCARKKMATFAAFDIWGQGTMVTVSS
VL: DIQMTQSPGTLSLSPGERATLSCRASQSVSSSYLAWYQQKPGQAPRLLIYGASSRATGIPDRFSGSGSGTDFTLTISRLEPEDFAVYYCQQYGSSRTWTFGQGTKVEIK
notes: Fab from a phage library
B11: Fab antibody Ab15 (Fab, V domains shown)
VH: EVQLLESGGGLVQPGGSLRLSCAASGFTFSNYTMMWVRQAPGKGLEWVSGIRPSGGGTMYADSVKGRFTISRDNSKNTLYLQMNSLRAEDTAVYYCASVVNHKFDNWGQGTLVTVSS
VL: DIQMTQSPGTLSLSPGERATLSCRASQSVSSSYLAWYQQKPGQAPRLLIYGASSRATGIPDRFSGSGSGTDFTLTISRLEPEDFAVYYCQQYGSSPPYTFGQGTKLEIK
notes: Fab from a phage library
B12: Fab antibody Ab12 (Fab, V domains shown)
VH: EVQLLESGGGLVQPGGSLRLSCAASGFTFSFYKMHWVRQAPGKGLEWVSGIWPSGGYTEYADSVKGRFTISRDNSKNTLYLQMNSLRAEDTAVYYCARSSGYHIDYWGQGTLVTVSS
VL: DIQMTQSPGTLSLSPGERATLYCRASQSVKSNYLAWYQQKPGQAPRLLIYGASTRATDIPDRFSGSGSGTDFTLTISRLEPEDFAVYYCQQYGSSLSYTFGQGTKLEIK
notes: Fab from a phage library

Experiments:
[1] = biological target: T1, recombinant D4 domain polypeptide of human KIT (V308 to K412, with His tag) (human, UniProt P10721 26-412); test: solid phase ELISA, polypeptide coated on plate
T1 construct: also called D4 domain of human KIT

[2] = biological target: T2, recombinant D5 domain polypeptide of human KIT (N410 to H515, with His tag) (human, UniProt P10721 26-519); test: solid phase ELISA, polypeptide coated on plate
T2 construct: also called D5 domain of human KIT

[3] = biological target: T3, recombinant KIT D4/D5 polypeptide (D4/D5 region of human KIT, V308 to H515, with 5xHis tag) (human, UniProt P10721 26-519); test: solid phase ELISA, D4/D5 polypeptide coated on plate
T3 construct: also called recombinant antigen; recombinant IG domain four and five of the extracellular region of KIT
Experimental: (§1) Coating plates with antigen: Recombinant antigen containing the D4/D5 region of the KIT extracellular Ig-like region (see FIG. 2A) were absorbed to 96-well microtiter plates. 10 μg of recombinant antigen (i.e., D4/D5 region of KIT) were diluted into 10 mL of borate buffer, and 100 μL of the antigen solution were added to each well of a 96 well plate. The 96 well plate was covered with a plate sealer, was incubated at 4° C. overnight, and then stored at −80° C. until the day of the assay.
ELISA: The plate with the absorbed antigen was removed from the −80° C. freezer and was allowed to thaw at room temperature. The borate buffer was removed by flicking the plate into the sink and blotting the plate dry. 200 μL of the blocking buffer were added to each well and allowed to incubate at room temperature for one hour. The blocking buffer was removed, again by flicking the plate into the sink. Then, the diluted solution of test antibodies and controls (were added to the plate in a volume of 50 μL and incubated at room temperature for one hour. The antibody solutions were removed, and the plate was washed four times with 300 μL of wash buffer with five minute incubations. After the last wash, the plate was blotted dry. The diluted secondary antibody solution was added to each well in a volume of 100 μL and allowed to incubate for one hour at room temperature. The diluted secondary antibody solution was removed, and the plate was washed four times with 300 μL of wash buffer with five minute incubations. The plate was then blotted dry, and freshly mixed substrate solution was added to each well in a volume of 100 μL and was allowed to incubate at room temperature for 30 minutes. Subsequently, 100 μL of 2NH₂SO₄ were added to each well and immediately read on the plate reader. An irrelevant antibody served as the negative control, and an anti-KIT antibody against the D4 and/or D5 domain of the extracellular region of KIT served as the positive control. OD values for each sample were obtained at a wavelength of 450 nm.

[4] = biological target: T4, full-length, wild-type human KIT (human, UniProt P10721 26-976); test: cell-based or functional assay
[5] = biological target: T3, recombinant KIT D4/D5 polypeptide …; test: binding assays on the D4/D5 region of human KIT (solid phase ELISA); IgG version of Fab Ab1 (Dyax reformatting), Example 2
[6] = biological target: T4, full-length, wild-type human KIT; test: immunofluorescence staining with Ab1-Alexa488 on CHO/KIT and NIH3T3/KIT cells, confocal microscopy
Experimental: Immunofluorescence staining assays were carried to determine if antibody Ab1 was internalized by cells. The immunofluorescence staining assays were carried out essentially as described below. Materials and reagents for the immunofluorescence assays include the following: [0745] Tissue culture slides: Poly-D-Lysine coated four or eight well chamber slide [0746] Antibody: Antibody Ab1 conjugated with the fluorescent dye Alexa-488 (Invitrogen) [0747] Fixative: 4% paraformaldehyde; store 40% PFA microscopy grade in fridge and dilute 1:10 with PBS just before use [0748] Mounting media: Prolong Gold antifade+DAPI [0749] CHO cells engineered to express exogenous human, wild-type KIT (full-length) (“CHO/KIT”) [0750] NIH3T3 cells engineered to express exogenous human, wild-type KIT (full-length) [0751] (“NIH3T3/KIT”)
15,000 to 30,000 CHO/KIT cells or NIH3T3/KIT cells were seeded into each well of the tissue culture slide. The cells were cultivated for at least 24 hrs before starvation in media containing no fetal bovin serum overnight. Ab1-Alexa488 was diluted in starvation media containing 1% bovine serum albumin and pipetted onto the cell layer. 5 to 60 min later, cell layers were washed once with PBS (room temperature). Cell layers were fixed for 18 min with fixative at room temperature, and were washed 3 times with PBS. […] Internalization of the antibody was analyzed by confocal microscopy.

[7] = biological target: T3, recombinant KIT D4/D5 polypeptide …; test: solid phase ELISA, recombinant D4/D5 region coated on plate, full-length human IgG1
Experimental: Serial antibody dilutions were prepared as follows. A starting antibody concentration of 300 nM (or lower depending on sample) was diluted down 1:3 in dilution buffer. Specifically, 200 μl of the starting concentration (top row of dilution plate) was prepared, and 75 μl was diluted into 150 μl in the row below. The dilution was mixed, and the dilution step was repeated down the plate. From the dilution plate, 100 μl was transferred to the assay plate.
The binding assays were carried out as follows. The plate coated with antigen (i.e., recombinant D4/D5 region of KIT) were removed from the −80° C. freezer and were allowed to warm to room temperature. The borate buffer was removed by flicking the plate into the sink and blotting it dry. 200 μL of the blocking buffer (1% BSA/TBS) was added and incubated at room temperature for one hour. The blocking buffer was then removed by flicking the plate into the sink, and blotting dry. Then, the serially diluted antibodies and controls were added to the plate in a volume of 100 μL, and the plate was sealed and incubated at room temperature for one hour.

[8] = biological target: T2, recombinant D5 domain polypeptide of …; test: solid phase ELISA, D5 polypeptide coated on plate
[9] = biological target: T3, recombinant KIT D4/D5 polypeptide …; test: solid phase ELISA, D4/D5 antigen coated on plate, Fab; concentration at 50% binding
Experimental: as §1
ELISA: The plate with the absorbed antigen was removed from the −80° C. freezer and was allowed to thaw at room temperature. The borate buffer was removed by flicking the plate into the sink and blotting the plate dry. 200 μL of the blocking buffer were added to each well and allowed to incubate at room temperature for one hour. The blocking buffer was removed, again by flicking the plate into the sink. […] Subsequently, 100 μL of 2NH₂SO₄ were added to each well and immediately read on the plate reader. […]

T3 sequence (P10721 other isoform, or with tags, fused parts or gaps limits assumed): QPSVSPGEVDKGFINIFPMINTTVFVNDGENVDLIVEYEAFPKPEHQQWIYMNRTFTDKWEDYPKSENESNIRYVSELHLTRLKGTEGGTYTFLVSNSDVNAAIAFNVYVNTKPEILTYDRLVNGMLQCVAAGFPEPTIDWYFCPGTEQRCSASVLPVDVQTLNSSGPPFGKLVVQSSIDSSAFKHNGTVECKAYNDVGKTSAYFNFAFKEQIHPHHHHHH
T1 sequence (P10721 other isoform, or with tags, fused parts or gaps limits assumed): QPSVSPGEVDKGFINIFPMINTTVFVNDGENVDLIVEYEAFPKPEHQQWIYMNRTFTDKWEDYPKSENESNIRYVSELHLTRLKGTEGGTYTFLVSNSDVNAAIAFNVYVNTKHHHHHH
T4 sequence (P10721 other isoform, or with tags, fused parts or gaps limits assumed): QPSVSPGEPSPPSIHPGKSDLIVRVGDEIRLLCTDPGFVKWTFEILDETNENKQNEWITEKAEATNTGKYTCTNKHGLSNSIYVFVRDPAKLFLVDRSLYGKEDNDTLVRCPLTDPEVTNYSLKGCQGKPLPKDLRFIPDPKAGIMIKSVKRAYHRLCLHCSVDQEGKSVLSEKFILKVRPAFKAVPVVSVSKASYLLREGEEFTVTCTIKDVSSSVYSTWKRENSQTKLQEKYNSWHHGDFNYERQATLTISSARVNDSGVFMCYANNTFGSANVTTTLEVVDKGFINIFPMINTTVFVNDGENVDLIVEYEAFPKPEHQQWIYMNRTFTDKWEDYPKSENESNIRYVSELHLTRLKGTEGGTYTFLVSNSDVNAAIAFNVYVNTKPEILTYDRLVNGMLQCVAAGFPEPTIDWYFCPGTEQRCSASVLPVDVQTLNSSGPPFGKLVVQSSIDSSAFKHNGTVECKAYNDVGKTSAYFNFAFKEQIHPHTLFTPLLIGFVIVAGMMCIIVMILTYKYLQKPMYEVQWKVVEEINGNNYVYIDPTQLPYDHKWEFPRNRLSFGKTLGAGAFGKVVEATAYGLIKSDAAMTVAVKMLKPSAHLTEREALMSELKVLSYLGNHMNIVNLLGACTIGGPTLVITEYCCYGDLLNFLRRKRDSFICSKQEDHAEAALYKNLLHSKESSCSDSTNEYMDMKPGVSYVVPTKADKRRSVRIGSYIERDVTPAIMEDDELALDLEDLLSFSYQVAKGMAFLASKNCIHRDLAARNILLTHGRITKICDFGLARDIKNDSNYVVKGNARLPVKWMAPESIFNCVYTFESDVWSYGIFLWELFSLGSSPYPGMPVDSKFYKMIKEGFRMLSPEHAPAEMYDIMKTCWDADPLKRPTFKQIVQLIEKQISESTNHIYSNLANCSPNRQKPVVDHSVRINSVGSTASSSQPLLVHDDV
T2 sequence (P10721 other isoform, or with tags, fused parts or gaps limits assumed): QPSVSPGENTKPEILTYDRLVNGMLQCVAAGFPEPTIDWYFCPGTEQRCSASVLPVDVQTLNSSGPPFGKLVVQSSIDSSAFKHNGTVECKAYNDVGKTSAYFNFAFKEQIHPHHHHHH

| Binder | binding result [1] | binding result [2] | binding result [3] | further results |
| --- | --- | --- | --- | --- |
| B1 | no binding | no binding | binds |  |
| B2 | no binding | no binding | binds |  |
| B3 |  |  |  | IC50 of inhibition of KIT phosphorylation (phospho-KIT assay) [4]: ~2.5 nM; EC50 [5]: ~0.007 nM |
| B4 |  |  |  | binding result [6]: binds |
| B5 |  |  |  | 50% inhibition concentration (IC50) of tyrosine phosphorylation of the cytoplasmic domain of KIT (cell-based phospho-KIT assay) [4]: 2.2 nM; EC50 [7]: 0.171 nM |
| B6 |  |  |  | 50% inhibition concentration (IC50) of tyrosine phosphorylation of the cytoplasmic domain of KIT (cell-based phospho-KIT assay) [4]: 1.3 nM; EC50 [7]: 0.156 nM |
| B7 | no binding | no binding | binds |  |
| B8 | no binding | no binding | binds |  |
| B9 |  |  |  | binding result [8]: binds |
| B10 |  |  |  | EC50 [9]: ≤ 300 nM |
| B11 | no binding | no binding | binds |  |
| B12 |  |  |  | EC50 [9]: ≤ 300 nM |
